Measured values: US20180009859A1, “PHARMACOLOGICAL MODULATORS OF GABAA RECEPTORS AND THEIR USE” (priority 2015, published 2018)
Read-outs that look alike come from different tables or passages of the source.

Key:
GABAA receptors in SPMs [1] = type: binding, rat; details: for displacing ^125I-rMmTX2 (in words): SPMs; for Ki: read-out: equilibrium inhibition constant (Ki)
GABAA receptors in SPMs [2] = assay: [^3H]muscimol competition for binding to SPMs; set-up: species or system rat
[3] = target: GABAA receptors of hippocampal neurons; details: reported values; cited from earlier work
hippocampal neurons [4] = assay: Calcium imaging of hippocampal neurons (Ca^2+ oscillations); type: cell-based, rat; details: 0.3 μM muscimol alone, n=9
[5] = system: GABAA receptors of hippocampal neurons; type: cell-based, mouse
[6] = target: GABAA receptors in rat brain synaptic plasma membranes (SPMs) (rat)
[7] = target: GABAA receptors in rat brain synaptic plasma membranes (SPMs) (rat); assay: ratio of the kinetic constants, radioligand binding to rat brain SPMs
[8] = target: GABAA receptors in rat brain synaptic plasma membranes (SPMs) (rat); remark: listed apart in the source
[9] = target: GABAA receptors in rat brain synaptic plasma membranes (SPMs) (rat); remark: listed apart in the source
hippocampal neurons [10] = type: cell-based, mouse; details: 100 μM PTX, n=5
[11] = target: GABAA receptors of mouse hippocampal neurons (mouse); assay: cell-based or functional assay
[12] = target: GABAA receptors in rat brain synaptic plasma membranes (SPMs) (rat); assay: competition with 125I-rMmTX2 for rat brain SPMs
[13] = target: GABAA receptors in rat brain synaptic plasma membranes (SPMs) (rat); assay: competition with 40 nM [3H]muscimol for rat brain SPMs
[14] = target: GABAA receptors in rat brain synaptic plasma membranes (SPMs) (rat); assay: competition with 40 nM [3H]muscimol for rat brain SPMs, nonlinear fit for an allosteric modulator
mice [15] = details: for activity when injected intravenously: mouse, in vivo
mice [16] = details: injection into mouse brain
GABAA receptors in SPMs [17] = type: binding, rat
α1β2γ2 GABAA receptor = α1β2γ2 GABAA receptor (Rattus norvegicus, UniProt P62813+P63138); type: cell-based
Sequence of α1β2γ2 GABAA receptor (P63138 25-474): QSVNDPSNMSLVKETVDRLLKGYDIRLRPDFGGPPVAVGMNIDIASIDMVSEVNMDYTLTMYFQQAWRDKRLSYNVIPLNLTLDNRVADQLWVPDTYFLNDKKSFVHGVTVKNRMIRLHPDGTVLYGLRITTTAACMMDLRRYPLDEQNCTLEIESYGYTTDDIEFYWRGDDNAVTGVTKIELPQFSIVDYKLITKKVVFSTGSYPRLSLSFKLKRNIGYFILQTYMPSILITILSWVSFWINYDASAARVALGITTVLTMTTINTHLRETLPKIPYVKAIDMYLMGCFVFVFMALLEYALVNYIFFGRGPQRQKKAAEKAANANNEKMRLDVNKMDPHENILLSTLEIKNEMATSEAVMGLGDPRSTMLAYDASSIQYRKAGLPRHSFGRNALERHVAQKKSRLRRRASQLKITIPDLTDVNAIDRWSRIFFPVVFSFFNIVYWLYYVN
Sequence of α1β2γ2 GABAA receptor (P62813 28-455): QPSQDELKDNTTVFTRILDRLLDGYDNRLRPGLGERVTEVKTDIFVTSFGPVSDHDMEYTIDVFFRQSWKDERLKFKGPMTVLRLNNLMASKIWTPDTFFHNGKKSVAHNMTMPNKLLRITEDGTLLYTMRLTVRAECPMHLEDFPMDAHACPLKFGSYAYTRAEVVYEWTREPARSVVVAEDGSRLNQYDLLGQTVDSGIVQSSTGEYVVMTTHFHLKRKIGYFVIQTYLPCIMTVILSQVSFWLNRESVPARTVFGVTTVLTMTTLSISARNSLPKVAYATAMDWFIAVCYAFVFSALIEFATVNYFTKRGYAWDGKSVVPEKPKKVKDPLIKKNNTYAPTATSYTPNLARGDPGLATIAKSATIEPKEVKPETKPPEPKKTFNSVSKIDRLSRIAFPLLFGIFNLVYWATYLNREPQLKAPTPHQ
Sequence of α1β2γ2 GABAA receptor (P18508 39-466, further chain): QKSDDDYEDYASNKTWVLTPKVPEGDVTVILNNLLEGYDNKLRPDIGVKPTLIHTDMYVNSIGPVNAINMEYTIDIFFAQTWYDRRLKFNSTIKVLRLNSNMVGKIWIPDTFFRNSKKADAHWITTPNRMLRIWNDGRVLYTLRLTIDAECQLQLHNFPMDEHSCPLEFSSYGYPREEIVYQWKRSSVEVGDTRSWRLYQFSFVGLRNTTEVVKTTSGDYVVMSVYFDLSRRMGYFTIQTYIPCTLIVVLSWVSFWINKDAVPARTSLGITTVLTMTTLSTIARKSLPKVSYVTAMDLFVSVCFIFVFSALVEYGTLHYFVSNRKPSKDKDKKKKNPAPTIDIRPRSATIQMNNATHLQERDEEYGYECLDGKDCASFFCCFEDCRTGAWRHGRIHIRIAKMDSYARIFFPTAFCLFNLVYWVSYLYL

[18] = read-out: EC50 for reducing ^125I-MmTX2 binding to SPMs
[19] = sigmoidal dose-response fit, read-out: EC50 for reducing ^125I-MmTX2 binding to SPMs

NCCCC(=O)O [GABA, γ-aminobutyric acid]
nH (Hill slope) for reducing ^125I-MmTX2 binding (GABAA receptors in SPMs [1]): 0.99±0.18

NCc1cc(=O)[nH]o1 [[^3H]muscimol, reference compound]
Kd (GABAA receptors in SPMs [2]; SPMs, read-out: Kd of [^3H]muscimol (constrained fit parameter)): 1.75 nM

CN1[C@@H]2CC[C@H]1C[C@@H](OC(=O)C(CO)c1ccccc1)C2 (stereo partly shown) [atropine]
competition with ^125I-rMmTX2 for binding to SPMs (GABAA receptors in SPMs [1]): does not compete

COc1cc2c3cc1Oc1cc(ccc1O)C[C@@H]1c4c(cc(OC)c(O)c4Oc4ccc(cc4)C[C@@H]3N(C)CC2)CC[N+]1(C)C [d-tubocurarine]
competition with ^125I-rMmTX2 for binding to SPMs (GABAA receptors in SPMs [1]; ligand 10 μM): no competition is observed

CN1C(=O)CN=C(c2ccccc2)c2cc(Cl)ccc21 [diazepam]
nH (Hill slope) for reducing ^125I-MmTX2 binding (GABAA receptors in SPMs [1]): −0.96±0.07 | EC50 (GABAA receptors in SPMs [1]; [18]): 4900 nM

COc1ccc(-c2ccc(=N)n(CCCC(=O)O)n2)cc1 [gabazine]
nH (Hill slope) for reducing ^125I-MmTX2 binding (GABAA receptors in SPMs [1]): 1.00±0.07 | EC50 (GABAA receptors in SPMs [1]; [18]): 200 nM

N[C@@H](CCC(=O)O)C(=O)O [glutamate]
competition with ^125I-rMmTX2 for binding to SPMs (GABAA receptors in SPMs [1]; ligand 0.1 mM): does not compete

NCC(=O)O [glycine]
competition with ^125I-rMmTX2 for binding to SPMs (GABAA receptors in SPMs [1]): does not compete

O=C(O)C1=CCNCC1 [isoguvacine]
nH (Hill slope) for reducing ^125I-MmTX2 binding (GABAA receptors in SPMs [1]): 1.02±0.29 | EC50 (GABAA receptors in SPMs [1]; [19]): 275000 nM

NCc1cc(=O)[nH]o1 [muscimol, reference compound]
EC50 [3]: 5400 to 24000 nM | frequency of Ca^2+ spikes compared to cells perfused with extracellular saline solution (hippocampal neurons [4]): 98.0±4.8% | nH (Hill slope) for reducing ^125I-MmTX2 binding (GABAA receptors in SPMs [1]): 1.08±0.24 | EC50 (GABAA receptors in SPMs [1]; [19]): 2100 nM | IC50 ([5]; 100 nM rMmTX1, read-out: IC50 of muscimol for abolishing the potentiating effect of rMmTX1): 1100 nM | nH coefficient of GABAA receptor current amplitude ([5]; muscimol alone): 1.4 | EC50 ([5]; muscimol alone, Hill fit, read-out: EC50 of GABAA receptor current amplitude): 4100 nM

CCCC(C)C1(CC)C(=O)NC(=O)NC1=O (stereo not shown) [pentobarbital]
nH (Hill slope) for reducing ^125I-MmTX2 binding (GABAA receptors in SPMs [1]): 0.98±0.07 | EC50 (GABAA receptors in SPMs [1]; [19]): 4800 nM

^125I-rMmTX2 (peptide)
Bmax (fmol/mg of SPM protein) [6]: 532 | Kd [6]: 0.76 nM | ratio of Bmax with/without PTX [6]: 2.01 | Kd [7]: 0.38 nM | t1/2 of dissociation [8]: 7.97 min | Bmax (fmol/mg of synaptic protein) [9]: 264 | Kd [9]: 0.51 nM | half time duration of dissociation [9]: 8 min | koff [9]: 0.0014 s⁻¹ | kon [9]: 3.7e+06 M⁻¹ s⁻¹

cardiotoxin [CTX]
competition with ^125I-rMmTX2 for binding to SPMs (GABAA receptors in SPMs [1]; ligand 10 μM): does not displace

picrotoxin [PTX]
action potential frequency (hippocampal neurons [10]): increases more dramatically when compared to sMmTX1 | nH for potentiating ^125I-MmTX2 binding capacity (GABAA receptors in SPMs [1]): +1.05±1.16 | EC50 (GABAA receptors in SPMs [1]; read-out: EC50 for potentiating ^125I-MmTX2 binding capacity to SPMs): 3700 nM

recombinant MmTX1 (rMmTX1) (peptide)
factor of increase of the GABAA current elicited by 5 µM muscimol, with 1 nM rMmTX1 [11]: 1.24 fold | factor of increase of the GABAA current elicited by 5 µM muscimol, with 10 nM rMmTX1 [11]: 1.22 fold | Ki [12]: 3 nM | log Ki [12]: -8.52 | percent of the total [^3H]muscimol binding capacity competed [13]: 40% | Kd [14]: 4.9 nM

recombinant MmTX2 (rMmTX2) (peptide)
Ki [12]: 3.7 nM | log Ki [12]: -8.44

wild-type (WT) MmTX2, micrurotoxin2 purified from Micrurus mipartitus venom (peptide)
Ki [12]: 0.8 nM | log Ki [12]: -9.09

α-bungarotoxin
competition with ^125I-rMmTX2 for binding to SPMs (GABAA receptors in SPMs [1]): no competition is observed

B1: rMmTX1: recombinant MmTX1 from a periplasmic expression system (protein)
peptide: LTCKTCPFTTCPNSESCPGGQSICYQRKWEEHRGERIERRCVANCPAFGSHDTSLLCCTRDNCN
modifications: ends and bridges not checked
activity when injected intravenously (mice [15]): inactive | LD50 (mice [16]): 0.027 mg/kg | behavioral signs (mice [16]): reduced activity combined with severe seizures | part of the total [^3H]muscimol binding capacity competed for (GABAA receptors in SPMs [2]; 40 nM [^3H]muscimol): about 40% | Kd (GABAA receptors in SPMs [2]; 40 nM [^3H]muscimol, allosteric modulator fit, read-out: Kd in competition with [^3H]muscimol): 4.9 ± 0.2 nM | displacing ^125I-rMmTX2 (in words) (GABAA receptors in SPMs [1]): equally potent | Ki (GABAA receptors in SPMs [1]): 3 nM | effect on GABAA receptors in the absence of an agonist [5]: no effect | increase of GABAA receptor-mediated currents [5]: up to 7 fold | Factor of GABAA current increase ([5]; 0.1 μM muscimol + 100 nM rMmTX1): 7.9 ± 2.9 (n = 2) | Cl^− current ([5]; 0.1 μM muscimol together with 100 nM rMmTX1): 228±30 pA | muscimol concentration at the half-maximal potentiating effect of rMmTX1 ([5]; 100 nM rMmTX1): about 1 μM | Factor of GABAA current increase ([5]; 0.3 μM muscimol + 100 nM rMmTX1): 7.5 ± 1.2 (n = 4) | inward current ([5]; 0.3 μM muscimol together with 100 nM rMmTX1, neurons without response to muscimol alone): 439±51 pA | Factor of GABAA current increase ([5]; 1.0 μM muscimol + 100 nM rMmTX1): 1.9 ± 0.4 (n = 3) | Factor of GABAA current increase ([5]; 3 μM muscimol + 100 nM rMmTX1): 1.4 ± 0.1 (n = 6) | factor of GABAA current amplitude increase ([5]; 5 μM muscimol + 1 nM rMmTX1, n=9): 1.24 ± 0.07 | factor of GABAA current amplitude increase ([5]; 5 μM muscimol + 10 nM rMmTX1, n=9): 1.22 ± 0.03 | factor of GABAA current amplitude increase ([5]; 5 μM muscimol + 100 nM rMmTX1, n=9): 1.99 ± 0.28 | factor of GABAA current amplitude increase ([5]; 5 μM muscimol + 300 nM rMmTX1, n=9): 1.69 ± 0.25 | Factor of GABAA current increase ([5]; 30 μM muscimol + 100 nM rMmTX1): 1.0 ± 0.1 (n = 4) | Factor of GABAA current increase ([5]; 50 μM muscimol + 100 nM rMmTX1): 1.0 ± 0.1 (n = 3) | toxin-induced potentiation at high muscimol ([5]; muscimol concentrations greater than 10 μM): do not observe a toxin-induced potentiation

B2: ^125I-rMmTX2: MmTX2 radioactively labeled by lacto-peroxidase-catalyzed iodination (protein)
peptide: LTCKTCPFTTCPNSESCPGGQSICYQRKWEEHHGERIERRCVANCPAFGSHDTSLLCCTRDNCN
modifications: ends and bridges not checked; also: 125I iodination (lactoperoxidase-catalysed), site not given here
second-order kinetic constant of association (k+1) (GABAA receptors in SPMs [17]; 1 to 4 nM ligand, SPMs): 3.7±0.5×10^6 M^−1 s^−1 | first-order kinetic constant (k−1) (GABAA receptors in SPMs [17]; dissociation after 1000-fold excess of unlabeled rMmTX2): 0.0014 ± 0.0004 s⁻¹ | half time duration of dissociation (GABAA receptors in SPMs [17]; dissociation from SPMs): ~8 min | Kd (GABAA receptors in SPMs [17]; in the presence of 1 mM PTX, read-out: Kd with PTX): 0.76 ± 0.18 nM | Kd (GABAA receptors in SPMs [17]; ratio of both kinetic constants, read-out: true dissociation value (Kd=k−1/k+1)): 0.38 ± 0.05 nM | Kd (GABAA receptors in SPMs [17]; read-out: Kd (saturation binding at equilibrium)): 0.51 ± 0.09 nM

B3: rMmTX2: recombinant MmTX2 from a periplasmic expression system (protein)
peptide: LTCKTCPFTTCPNSESCPGGQSICYQRKWEEHHGERIERRCVANCPAFGSHDTSLLCCTRDNCN
modifications: ends and bridges not checked
flaccid paralysis (mice [15]; injected intravenously into mice): no flaccid paralysis | activity when injected intravenously (mice [15]): inactive | LD50 (mice [16]): 0.010 mg/kg | behavioral signs (mice [16]): reduced activity combined with severe seizures | displacing ^125I-rMmTX2 (in words) (GABAA receptors in SPMs [1]): equally potent | Ki (GABAA receptors in SPMs [1]): 3.7 nM

B4: MmTX1 (protein, listed as Micrurus mipartitus)
chain: LTCKTCPFTTCPNSESCPGGQSICYQRKWEEHRGERIERRCVANCPAFGSHDTSLLCCTRDNCN
modifications: ends and bridges not checked
displacing ^125I-rMmTX2 (in words) (GABAA receptors in SPMs [1]): equally potent

B5: Fas 2: animal toxin that targets AChE (protein, UniProt P0C1Z0 1-61, looked up)
Fasciculin-2: TMCYSHTTTSRAILTNCGENSCYRKSRRHPPKMVLGRGCGCPPGDDNLEVKCCTSPDKCNY
modifications: ends and bridges not checked
competition with ^125I-rMmTX2 for binding to SPMs (GABAA receptors in SPMs [1]; ligand 10 μM): does not compete

B6: sMmTX1-HRK: sMmTX1 mutated at 4His, 28Arg, 47Lys and acetylated at the N-terminus, SEQ ID NO: 21 (peptide)
chain: Ac-LTCHTCPFTTCPNSESCPGGQSICYQRRWEEHRGERIERRCVANCPKFGSHDTSLLCCTRDNCN
modifications: ends and bridges not checked
effect on α1β2γ2 GABAA receptor currents (α1β2γ2 GABAA receptor; 100 nM muscimol + 100 nM toxin, −70 mV): currents are potentiated and receptor desensitization tends to accelerate | effect on α1β2γ2 GABAA receptor currents (α1β2γ2 GABAA receptor; 300 nM muscimol): potentiating effect is diminished whereas desensitization effect is unaltered
